The results in this text go back to patent US6492124B1, “Trance activated signal transduction pathways in osteoclasts” (The Rockefeller University, priority 1999, dated 2002).

Series [1] concerns c-Src. Briefly: c-Src immunoprecipitate in vitro kinase assay with SAM68 after TRANCE stimulation of cells. It counts as cell-based, mouse. Here is the method:
FIG. 3. c-Src is required for TRANCE-induced PKB activation and osteoclast survival. (A) c-Src was immunoprecipitated from osteoclasts, dendritic cells and macrophages stimulated with TRANCE (1 μg/ml) for the indicated times using an anti-c-Src-specific monoclonal antibody (327). PTK activity of the c-Src immunprecipitates were measured in vitro using SAM68, a PTK specific substrate. The degree of SAM68 phosphorylation was determined by Western blot analysis using an anti-phospho-tyrosine antibody (4G10) and densitometry. Note that c-Src kinase activity was not detectable in TRANCE-treated macrophages most likely due to low levels of c-Src in these cells (Lacey, et al., supra, 1998). (B) Osteoclasts derived from wild type and c-Src deficient mice were stimulated with TRANCE (5 μg/ml) for 10 min and the levels of phosphorylated PKB (PKB^P), total PKB, and total IκBα were determined as in FIG. 1. […] TRAP solution assays were performed and percent survival calculated. […] Osteoclasts were detected by TRAP solution assays. […]
FIG. 5. […] PTK activity of the c-Src immunoprecipitates was measured by in vitro kinase assays using SAM68 as a PTK substrate. The degree of SAM68 phosphorylation (SAM68^P) was determined by Western blot analysis using a phospho-tyrosine specific antibody (4G10) followed by densitometry. […] The degree of SAM68 phosphorylation (SAM68^P) was determined as in (A). […]

In series [2] the test system is p44/42 ERK. As to the kind of experiment: p44/42 ERK phosphorylation in osteoclasts and dendritic cells (Western blot). The series is classed as cell-based, mouse. The following applies: after 20 min of TRANCE stimulation. Here is the method:
FIG. 1. TRANCE activates p44/42 ERK, NF-κB and PKB in osteoclasts and dendritic cells. (A) Mature bone marrow-derived osteoclasts were stimulated for the indicated times with recombinant hCD8-TRANCE (TRANCE; 1 μg/ml). Levels of phosphorylated forms of p44/p42 ERK (p44 ERK^P and p42 ERK^P), IκBα (IκB-α^P) and PKB (PKB^P) in whole cell extracts were determined using phospho-peptide-specific antibodies as indicated in the figure. The membranes were stripped and incubated with antibodies against the p44/p42 ERK, IκB-α, and PKB as indicated to confirm that similar amounts of whole cell extracts were analyzed. Note the decrease of IκB-α after 10 min of treatment due to its degradation. (B) as in (A) except the use of mature bone marrow-derived dendritic cells instead of osteoclasts.
Cell stimulation, cell transfection and in vitro assays. In vitro differentiated mature dendritic cells, macrophages and osteoclasts were washed to remove exogenous growth factors, cultured in media with low serum (0.5% FCS, 6 hours), then stimulated by adding various cytokines in the presence or absence of inhibitors for various times as indicated. After stimulation, the cells were washed in ice-cold PBS, and subjected to Western blot analysis or immunoprecipitation as described below. […]
In general terms: In western blotting, separated proteins are transferred to a membrane and probed.

For the substance “TNF-related activation-induced cytokine [TRANCE]”, the c-Src kinase activity result in series [1] (TRANCE-treated macrophages) is “no detectable”. For the same substance, the “induction of c-Src kinase activity” value in series [1] (osteoclasts and dendritic cells, TRANCE 1 μg/ml) is reported as “approximately 2 fold”. In series [2], the ERK phosphorylation entry is listed as “transiently induced”.
